According to patent US20080242617:

B1: HalM2 (protein)
chain: TPLTSEHPSVPTTLPHTNDTDWLEQLHDILSIPVTEEIQKYFHAENDLFSFFYTPFLQFTYQSMSDYFMTFKTDMALIERQSLLQSTLTAVHHRLFHLTHRTLISEMHIDKLTVGLNGSTPHERYMDFNHKFNKTSKSKNLFNIYPILGKLVVNETLRTINFVKKIIQHYMKDYLLLSDFFKEKDLRLTNLQLGVGDTHVNGQCVTILTFASGQKVVYKPRSLSIDKQFGEFIEWVNSKGFQPSLRIPIAIDRQTYGWYEFIPHQEATSEDEIERYYSRIGGYLAIAYLFGATDLHLDNLIACGEHPMLIDLETLFTNDLDCYDSAFPFPALARELTQSVFGTLMLPITIASGKLLDIDLSAVGGGKGVQSEKIKTWVIVNQKTDEMKLVEQPYVTESSQNKPTVNGKEANIGNYIPHVTDGFRKMYRLFLNEIDELMDHNGPIFAFESCQIRHVFRATHVYAKFLEASTHPDYLQEPTRRNKLFESFWNITSLMAPFKKIVPHEIAELENHDIPYFVLTCGGTIVKDGYGRDIADLFQSSCIERVTHRLQQLGSEDEARQIRYIKSSLATLTNGDWTPSHEKTPMSPASADREDGYFLREAQAIGDDILAQLIWEDDRHAAYLIGVSVGMNEAVTVSPLTPGIYDGTLGIVLFFDQLAQQTGETHYRHAADALLEGMFKQLKPELMPSSAYFGLGSLFYGLMVLGLQRSDSHIIQKAYEYLKHLEECVQHEETPDFVSGLSGVLYMLTKIYQLTNEPRVFEVAKTTASRLSVLLDSKQPDTVLTGLSHGAAGFALALLTYGTAANDEQLLKQGHSYLVYERNRFNKQENNWVDLRKGNAYQTFWCHGAPGIGISRLLLAQFYDDELLHEELNAALNKTISDGFGHNHSLCHGDFGNLDLLLLYAQYTNNPEPKELARKLAISSIDQAHTYGWKLGLNHSDQLQGMMLGVTGIGYQLLRHINPTVPSILALELPSSTLTEKELRIHDR
B2: HalM1 (protein)
chain: MRELQNALYFSEVVFGPNLEKIVGEKRLNFWLKLIGEDPENLKEFLSRKGNSFEEQTLPEKEAIVPNRLGEEALEKVREELEFLNTYSTKHVRRVKELGVQIPFEGILLPFISMYIEKFQQQQLRKKIGPIHEEIWTQIVQDITSKLNAILHRTLILELNVARVTSQLKGDTPEERFAYYSKTYLGKREVTHRLYSEYPVVLRLLFTTISHHISFITEILERVANDREAIETEFSPCSPIGTLASLHLNSGDAHHKQRTVTILEFSSSLKLVYKPRSLKVDGVFNGLLAFLNDRTGEVIKDQYCPKVLQRDGYGYVEFVTHQSCQSLEEVSDFYERLGSLMSLSYVLNSSDFHFENIIAHGPYPVLIDLETIIHNTADSSEETSTAMDRAFRMLNDSVLSTGMLPSSIYYRDQPNMKGLNVGGVSKSEGQKTPFKVNQIANRNTDEMRIEKDHVTLSSQKNLPIFQSAAMESVHFLDQIQKGFTSMYQWIEKNKQEFKEQVRKFEGVPVRAVLRSTTRYTELLKSSYHPDLLRSALDREVLLNRLTVDSVMTPYLKEIIPLEVEDLLNGDVPYFYTLPEERALYQEASAINSTFFTTSIFHKIDQKIDKLGIEDHTQQMKILHMSMLASNANHYADVADLDIQKGHTIKNEQYVEMAKDIGDYLMELSVEGENQGEPDLCWISTVLEGSSEIIWDISPVGEDLYNGSAGVALFYAYLFKITGEKRYQEIAYKALVPVRRSVAQFQHHPNWSIGAFNGASGYLYAMGTIAALFNDERLKHEVTRSIPHIEPMIHEDKIYDFIGGSAGALKVFLSLSGLFDEPKFLELAIACSEHLMKNAIKTDQGIGWKPPWEVTPLTGFSHGVSGVMASFIELYQQTGDERLLSYIDQSLAYERSFFSEQEENWLTPNKETPVVAWCHGAPGILVSRLLLKKCGYLDEKVEKEIEVALSTTIRKGLGNNRSLCHGDFGQLEILRFAAEVLGDSYLQEVVNNLSGELYNLFKTEGYQSGTSRGTESVGLMVGLSGFGYGLLSAAYPSAVPSILTLDGEIQKYREPHEANH

Assays:
HalA2 = target: T1, HalA2
T1 chain: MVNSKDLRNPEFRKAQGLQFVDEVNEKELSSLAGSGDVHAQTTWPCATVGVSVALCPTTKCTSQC

HalA1 = target: T2, HalA1
T2 chain: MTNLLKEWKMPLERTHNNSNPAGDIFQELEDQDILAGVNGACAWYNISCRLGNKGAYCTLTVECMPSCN

Protein | dehydration of the peptide, MALDI-TOF MS (HalA2) | iodoacetamide alkylation of free cysteines after HalM modification (cyclization), MALDI-TOF MS (HalA2) | dehydration of the peptide, MALDI-TOF MS (HalA1) | iodoacetamide alkylation of free cysteines after HalM modification (cyclization), MALDI-TOF MS (HalA1)
B1 | incubation of HalA2 with HalM2 generated a species that was dehydrated 7-fold | The mass of HalA2 modified by HalM2 remained unchanged under the alkylation conditions tested, consistent with the absence of free Cys residues | Incubation of HalA1 with HalM2 or HalA2 with HalM1 did not result in modified peptide in either case | –
B2 | Incubation of HalA1 with HalM2 or HalA2 with HalM1 did not result in modified peptide in either case | – | Incubation of HalA1 with HalM1 generated a species that was dehydrated 3-fold | The mass of HalA1 after modification by HalM1 was increased by 116 Da, consistent with the addition of two adducts
